# B1: Chico-RFP (natural protein)
# chain: MASISDDGMALSGYLKKLKTMKKKFFVLYEETSTSAARLEYYDTEKKFLQRAEPKRVIYLKNCFNINRRLDTKHRFVIVLSSRDGGFGIVLENENDLRKWLDKLLVLQRNIANSNGTAHSPYDHVWQVVIQKKGISEKVGITGTYHCCLTSKSLTFVCIGPEKTPNGEDRVASIEILLTTIRRCGHASPQCIFYVELGRQSVLGSGDLWMETDNAAIATNMHNTILSAMSAKTESNTNLINVYQNRPDLSHEPMRKRSSSANEASKPINVNVIQNSQNSLELRSCSSPHNYGFGRERCDSLPTRNGTLSESSNQTYFGSNHGLRSNTISGIRPHSTNKHSNSPTFTMPLRCSESEESSISVDESDDNGSFSHYRLNTRSSETAIPEENIDDFASAELFSKVTEQNVSDENYIPMNPVNPTDAIHEKEKADMQRLEDASLHFNFPEHASEKLAKDFDLDSDNQCCRPIRAYSIGNKVEHLKFNKRLGHLNDTGQNPNRVRAYSVGSKSKIPRCDLQRVVLVEDNKHEFTANRSQSSITKEGTSYGSSANRQKKSTSAPLLSLKNQINSDRMSDLMEIDFSQATNLEKQKFIKNNEIPKYIENVFPKAPRTDSSSLTLHATSQKDIFNGTKLNNTAITSEDGYLEMKPVGNGYTPSSNCLPMKVEKLKLSDYQTAPPLTATAAPVHDLNKISTYNISAEKWREQPSRSEEKKSNSPLNDNTFSSKPTNVESTSKSHDVHSANQIDCEKVCAQSSDKLNNHLADKIVENNNLDIGGHEEKKLVHSISSEDYTQIKDKSNDFTKFNEAGYKILQIKSDSSLISSKLYQKGIHKDNLERSQRLTESVNTIPDNATATAVSSSSLTKFNINSAKPAAAADSRSTGTDPSTPQNILQIKDLNFPSRSSSRISQPELHYASLDLPHCSGQNPAKYLKRGSRESPPVSACPEDGNTYAKIDFDQSDSSSSSSNIFNT
# B2: Delta-RFP (natural protein)
# chain: QVHSSGSFELRLKYFSNDHGRDNEGRCCSGESDGATGKCLGSCKTRFRVCLKHYQATIDTTSQCTYGDVITPILGENSVNLTDAQRFQNKGFTNPIQFPFSFSWPGTFSLIVEAWHDTNNSGNARTNKLLIQRLLVQQVLEVSSEWKTNKSESQYTSLEYDFRVTCDLNYYGSGCAKFCRPRDDSFGHSTCSETGEIICLTGWQGDYCHIPKCAKGCEHGHCDKPNQCVCQLGWKGALCNECVLEPNCIHGTCNKPWTCICNEGWGGLYCNQDLNYCTNHRPCKNGGTCFNTGEGLYTCKCAPGYSGDDCENEIYSCDADVNPCQNGGTCIDEPHTKTGYKCHCANGWSGKMCEEKVLTCSDKPCHQGICRNVRPGLGSKGQGYQCECPIGYSGPNCDLQLDNCSPNPCINGGSCQPSGKCICPAGFSGTRCETNIDDCLGHQCENGGTCIDMVNQYRCQCVPGFHGTHCSSKVDLCLIRPCANGGTCLNLNNDYQCTCRAGFTGKDCSVDIDECSSGPCHNGGTCMNRVNSFECVCANGFRGKQCDEESYDSVTFDAHQYGATTQARADGLTNAQVVLIAVFSVAMPLVAVIAACVVFCMKRKRKRAQEKDDAEARKQNEQNAVATMHHNGSGVGVALASASLGGKTGSNSGLTFDGGNPNIIKNTWDKSVNNICASAAAAAAAAAAADECLMYGGYVASVADNNNANSDFCVAPLQRAKSQKQLNTDPTLMHRGSPAGSSAKGASGGGPGAAEGKRISVLGEGSYCSQRWPSLAAAGVAGACSSQLMAAASVAGSGAGTAQQQRSVVCGTPHM
# Legend:
# InR-CFP (Drosophila) [1] = molecular target: InR-CFP (Drosophila) (UniProt P09208); assay: FRET or BRET; sensitised emission FRET, CFP donor and mRFP acceptor, confocal microscopy of fixed larval salivary glands co-expressing both fusions (hsp-Gal4); glands incubated 15 min in Schneider's medium without insulin; FRETeff >=10% taken as positive
# InR-CFP (Drosophila) [2] = molecular target: InR-CFP (Drosophila) (UniProt P09208); assay: FRET or BRET; sensitised emission FRET, CFP donor and mRFP acceptor, confocal microscopy of fixed larval salivary glands co-expressing both fusions (hsp-Gal4); glands incubated 15 min in Schneider's medium with insulin (100 nM); FRETeff >=10% taken as positive
# Chico-RFP (Drosophila) [3] = molecular target: Chico-RFP (Drosophila) (UniProt Q9XTN2); assay: FRET or BRET; sensitised emission FRET, CFP donor and mRFP acceptor, confocal microscopy of fixed larval salivary glands co-expressing both fusions (hsp-Gal4); glands incubated 15 min in Schneider's medium without insulin; FRETeff >=10% taken as positive
# Chico-RFP (Drosophila) [4] = molecular target: Chico-RFP (Drosophila) (UniProt Q9XTN2); assay: FRET or BRET; sensitised emission FRET, CFP donor and mRFP acceptor, confocal microscopy of fixed larval salivary glands co-expressing both fusions (hsp-Gal4); glands incubated 15 min in Schneider's medium with insulin (100 nM); FRETeff >=10% taken as positive
# InR-CFP (Drosophila) [5] = molecular target: InR-CFP (Drosophila) (UniProt P09208); assay: FRET or BRET; sensitised emission FRET, CFP donor and mRFP acceptor, confocal microscopy of fixed larval salivary glands co-expressing both fusions (hsp-Gal4); glands incubated 15 min in Schneider's medium without insulin; FRETeff >=10% taken as positive; remark: listed apart in the source
# InR-CFP (Drosophila) [6] = molecular target: InR-CFP (Drosophila) (UniProt P09208); assay: FRET or BRET; sensitised emission FRET, CFP donor and mRFP acceptor, confocal microscopy of fixed larval salivary glands co-expressing both fusions (hsp-Gal4); glands incubated 15 min in Schneider's medium with insulin (100 nM); FRETeff >=10% taken as positive; remark: listed apart in the source
# Lnk-CFP (Drosophila) = assay: FRET or BRET; sensitised emission FRET, negative controls with Delta-RFP as acceptor in fixed larval salivary glands; insulin condition not stated; absence of FRET yields values <3%
# InR-CFP (Drosophila) [7] = molecular target: InR-CFP (Drosophila) (UniProt P09208); assay: as above
# Sequence of UniProt P09208 (P09208 1086-2144): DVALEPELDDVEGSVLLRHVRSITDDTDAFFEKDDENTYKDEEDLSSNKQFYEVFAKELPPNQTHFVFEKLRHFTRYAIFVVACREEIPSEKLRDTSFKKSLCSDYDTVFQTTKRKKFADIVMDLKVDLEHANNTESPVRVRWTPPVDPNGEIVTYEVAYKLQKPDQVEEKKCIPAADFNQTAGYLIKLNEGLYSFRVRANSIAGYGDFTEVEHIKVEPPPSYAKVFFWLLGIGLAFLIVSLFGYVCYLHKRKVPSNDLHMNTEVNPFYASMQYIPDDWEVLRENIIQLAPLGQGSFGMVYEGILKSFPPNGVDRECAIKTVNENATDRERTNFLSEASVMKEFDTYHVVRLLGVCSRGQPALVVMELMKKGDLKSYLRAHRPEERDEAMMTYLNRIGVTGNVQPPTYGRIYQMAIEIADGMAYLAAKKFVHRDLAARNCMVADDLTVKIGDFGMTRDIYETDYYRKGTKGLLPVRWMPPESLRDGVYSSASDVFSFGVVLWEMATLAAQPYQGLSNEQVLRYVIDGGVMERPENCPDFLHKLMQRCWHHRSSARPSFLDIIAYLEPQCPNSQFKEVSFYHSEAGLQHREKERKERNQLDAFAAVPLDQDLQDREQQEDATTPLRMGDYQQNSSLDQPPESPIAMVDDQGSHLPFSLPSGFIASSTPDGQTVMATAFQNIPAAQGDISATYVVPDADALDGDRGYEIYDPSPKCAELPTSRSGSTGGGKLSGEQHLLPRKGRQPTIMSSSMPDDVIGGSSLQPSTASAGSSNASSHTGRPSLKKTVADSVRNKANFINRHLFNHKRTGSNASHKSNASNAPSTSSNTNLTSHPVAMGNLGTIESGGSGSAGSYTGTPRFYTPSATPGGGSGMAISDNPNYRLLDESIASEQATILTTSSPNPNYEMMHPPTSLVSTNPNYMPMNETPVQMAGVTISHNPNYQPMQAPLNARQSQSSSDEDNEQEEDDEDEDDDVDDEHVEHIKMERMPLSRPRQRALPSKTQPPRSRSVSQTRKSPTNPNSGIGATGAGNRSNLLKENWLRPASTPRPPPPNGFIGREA
molecule,measurement,setting,value
Lnk-RFP (natural protein),FRET efficiency (FRETeff),InR-CFP (Drosophila) [1],10.8%
same,percent of tissue samples with positive FRET,InR-CFP (Drosophila) [1],60%
same,FRET efficiency (FRETeff),InR-CFP (Drosophila) [2],14%
same,percent of tissue samples with positive FRET,InR-CFP (Drosophila) [2],53%
Lnk-CFP (natural protein),FRET efficiency (FRETeff),Chico-RFP (Drosophila) [3],13.3%
same,percent of tissue samples with positive FRET,Chico-RFP (Drosophila) [3],30%
same,FRET efficiency (FRETeff),Chico-RFP (Drosophila) [4],14.8%
same,percent of tissue samples with positive FRET,Chico-RFP (Drosophila) [4],73%
B1,FRET efficiency (FRETeff),InR-CFP (Drosophila) [5],13.5%
same,percent of tissue samples with positive FRET,InR-CFP (Drosophila) [5],20%
same,FRET efficiency (FRETeff),InR-CFP (Drosophila) [6],14.1%
same,percent of tissue samples with positive FRET,InR-CFP (Drosophila) [6],71%
B2,FRET efficiency (FRETeff),Lnk-CFP (Drosophila),< 3%
same,FRET efficiency (FRETeff),InR-CFP (Drosophila) [7],< 3%

# From paper PMC3637499
